The assay concerns the target T1, HLA-A*02:01 (human).
T1 construct: MHC class I molecule without the peptide
The assay is described as follows: biotinylated peptide-MHC complex used as negative control in T-cell priming. The protocol:
800.000 beads/200 μl were coated in 96-well plates in the presence of 4×12.5 ng different biotin-pMHC, washed and 600 ng biotin anti-CD28 were added subsequently in a volume of 200 μl. Stimulations were initiated in 96-well plates by co-incubating 1×10⁶ CD8+ T cells with 2×10⁵ washed coated beads in 200 μl TCM supplemented with 5 ng/ml IL-12 (PromoCell) for 3 days at 37° C. Half of the medium was then exchanged by fresh TCM supplemented with 80 U/ml IL-2 and incubating was continued for 4 days at 37° C. This stimulation cycle was performed for a total of three times. For the pMHC multimer readout using 8 different pMHC molecules per condition, a two-dimensional combinatorial coding approach was used as previously described (Andersen et al., 2012) with minor modifications encompassing coupling to 5 different fluorochromes. […] For analysis, a BD LSRII SORP cytometer equipped with appropriate lasers and filters was used. Peptide specific cells were calculated as percentage of total CD8+ cells. Evaluation of multimeric analysis was done using the FlowJo software (Tree Star, Oregon, USA). In vitro priming of specific multimer+ CD8+ lymphocytes was detected by comparing to negative control stimulations.

From US20170056486A1 (IMMATICS BIOTECHNOLOGIES, published 2017) come the findings set out here.

B1: DDX5-001 (YLLPAIVHI from DDX5) (peptide)
peptide: YLLPAIVHI
notes: negative control peptide of the T-cell stimulations; also called 419
As for B1, the binding result is “binds”.
